Positions count from the first letter of the chain named.
Assays:
TPX2 = TPX2 (UniProt Q9ULW0); assay: anti-FLAG resin co-IP, TPX2 blot; conditions: reference: FLAG-ADD1 wild type, M phase; sites S726
[1] = molecular target: T1, FLAG-ADD1 WT (adducin-1), transiently expressed in HEK293 cells (UniProt P35611 1-737); assay: pull-down; GST-TPX2 fusion proteins immobilised on glutathione agarose beads, incubated with 25 μg of lysates from HEK293 cells expressing FLAG-tagged ADD1 forms at 4°C for 60 min; washed with TBS buffer; blot with anti-FLAG; conditions: one partner purified
T1 construct: adducin-1 (ADD1); pCMV-3Tag-3A probably adds a C-terminal 3x FLAG; also called FLAG-tagged ADD1; 293/FLAG-ADD1; source: HEK293, transiently transfected, in lysate
T1 sequence (looked up): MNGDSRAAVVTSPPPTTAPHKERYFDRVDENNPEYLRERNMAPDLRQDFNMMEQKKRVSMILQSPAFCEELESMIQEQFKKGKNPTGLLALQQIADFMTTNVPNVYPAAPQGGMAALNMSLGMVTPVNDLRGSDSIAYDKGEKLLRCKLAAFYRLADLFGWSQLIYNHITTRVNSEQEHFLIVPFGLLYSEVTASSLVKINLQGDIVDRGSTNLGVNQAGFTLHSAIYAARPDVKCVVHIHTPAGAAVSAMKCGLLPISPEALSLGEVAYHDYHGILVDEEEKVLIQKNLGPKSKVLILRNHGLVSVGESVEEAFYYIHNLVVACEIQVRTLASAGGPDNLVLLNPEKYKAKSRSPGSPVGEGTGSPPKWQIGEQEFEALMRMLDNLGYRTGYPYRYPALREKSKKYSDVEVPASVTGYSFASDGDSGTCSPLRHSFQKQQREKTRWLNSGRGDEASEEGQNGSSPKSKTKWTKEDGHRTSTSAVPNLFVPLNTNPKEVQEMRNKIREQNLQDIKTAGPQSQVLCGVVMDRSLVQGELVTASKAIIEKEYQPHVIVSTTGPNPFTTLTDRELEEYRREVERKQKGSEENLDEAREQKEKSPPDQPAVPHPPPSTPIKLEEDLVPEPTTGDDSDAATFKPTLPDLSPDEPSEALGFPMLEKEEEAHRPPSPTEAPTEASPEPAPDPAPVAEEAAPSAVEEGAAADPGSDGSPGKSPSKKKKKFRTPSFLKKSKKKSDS

[2] = molecular target: T2, FLAG-ADD1 S726A mutant, expressed in HeLa cells (UniProt P35611 1-737, S726A); assay: co-IP; HeLa cells expressing FLAG-ADD1 WT or S726A, synchronized at the M phase (nocodazole); lysates in TBS buffer (1% Triton X-100, 50 mM Tris-HCl pH 7.4, 150 mM NaCl) incubated with anti-FLAG M2 affinity resins for 16 h, eluted with FLAG peptide, blotted with anti-FLAG and anti-TPX2; conditions: partners not purified
T2 construct: adducin-1 (ADD1) with S726A; source: HeLa cells expressing FLAG-ADD1 S726A (lentiviral vector pLAS3w.Pneo), in whole-cell lysate
T2 sequence (looked up): T1 sequence (looked up) with S726A

For “adducin-1 (ADD1) (from UniProt P35611) FLAG-ADD1 S726A, M phase”, the “TPX2 co-IP binding relative to wild type” value (TPX2) was “weaker”.

B1: GST-TPX2 aa 120–370 fusion protein (domain or fragment, human, UniProt Q9ULW0 120-370, looked up)
chain: RSLRLSAQKDLEQKEKHHVKMKAKRCATPVIIDEILPSKKMKVSNNKKKPEEEGSAHQDTAEKNASSPEKAKGRHTVPCMPPAKQKFLKSTEEQELEKSMKMQQEVVEMRKKNEEFKKLALAGIGQPVKKSVSQVTKSVDFHFRTDERIKQHPKNQEEYKEVNFTSELRKHPSSPARVTKGCTIVKPFNLSQGKKRTFDETVSTYVPLAQQVEDFHKRTPNRYHLRSKKDDINLLPSKSSVTKICRDPQTP
notes: TPX2, Homo sapiens, aa 120–370 of the full-length cDNA (aa 1–747), subcloned into pGEX-2T; pGEX-2T probably places GST at the N-terminus; also called TPX2 aa 120–370 fragment; GST-tagged TPX2 aa 120–370; source: E. coli BL21, purified on glutathione agarose beads
B1: binds [1].

B2: TPX2, endogenous in HeLa cells (natural protein, human (endogenous in HeLa), UniProt Q9ULW0 1-747, looked up)
chain: MSQVKSSYSYDAPSDFINFSSLDDEGDTQNIDSWFEEKANLENKLLGKNGTGGLFQGKTPLRKANLQQAIVTPLKPVDNTYYKEAEKENLVEQSIPSNACSSLEVEAAISRKTPAQPQRRSLRLSAQKDLEQKEKHHVKMKAKRCATPVIIDEILPSKKMKVSNNKKKPEEEGSAHQDTAEKNASSPEKAKGRHTVPCMPPAKQKFLKSTEEQELEKSMKMQQEVVEMRKKNEEFKKLALAGIGQPVKKSVSQVTKSVDFHFRTDERIKQHPKNQEEYKEVNFTSELRKHPSSPARVTKGCTIVKPFNLSQGKKRTFDETVSTYVPLAQQVEDFHKRTPNRYHLRSKKDDINLLPSKSSVTKICRDPQTPVLQTKHRARAVTCKSTAELEAEELEKLQQYKFKARELDPRILEGGPILPKKPPVKPPTEPIGFDLEIEKRIQERESKKKTEDEHFEFHSRPCPTKILEDVVGVPEKKVLPITVPKSPAFALKNRIRMPTKEDEEEDEPVVIKAQPVPHYGVPFKPQIPEARTVEICPFSFDSRDKERQLQKEKKIKELQKGEVPKFKALPLPHFDTINLPEKKVKNVTQIEPFCLETDRRGALKAQTWKHQLEEELRQQKEAACFKARPNTVISQEPFVPKKEKKSVAEGLSGSLVQEPFQLATEKRAKERQELEKRMAEVEAQKAQQLEEARLQEEEQKKEELARLRRELVHKANPIRKYQGLEIKSSDQPLTVPVSPKFSTRFHC
notes: TPX2, endogenous protein of HeLa cells detected with anti-TPX2; source: endogenous, HeLa whole-cell lysate
In the case of B2, the “percent decrease of the interaction relative to FLAG-ADD1 WT” value [2] is reported as ~50%.

— paper PMC6073210, “Adducin‐1 is essential for spindle pole integrity through its interaction with TPX2” (EMBO Reports, 2018)
